Patent publication US5733879A, “Peptides and proteins, process for their preparation and their use as cholesterol acceptors” (N.V. Innogenetics, S.A., priority 1992, dated 1998)
“Also recorded” adds a separate entry of the source. Where no end group is shown, it is not given here.

Columns and labels:
[1] = target: T1, semi-purified LCAT enzyme (Homo sapiens, UniProt P04180); experiment: LCAT activation properties of the phospholipid-peptide complexes (HPLC of cholesteryl esters); type: biochemical; conditions: for Vmax (LCAT activation): PLPC/cholesterol/peptide discoidal complex as substrate, apparent kinetic constant, 37° C.; for kinetics of cholesterol esterification by LCAT (time course): discoidal complexes with PLPC and cholesterol, 0-24 h; for Vmax/Km A % of apo A1 (LCAT activation): relative to apo AI-phospholipid complex = 100; for Vmax compared with other complexes / apo AI-phospholipid complexes: Lineweaver-Burk plots
T1 construct: corresponds to the concentration relative to that in plasma by a factor of 5100, with the major contaminant being albumin; from tissue
T1 sequence (P04180 25-440): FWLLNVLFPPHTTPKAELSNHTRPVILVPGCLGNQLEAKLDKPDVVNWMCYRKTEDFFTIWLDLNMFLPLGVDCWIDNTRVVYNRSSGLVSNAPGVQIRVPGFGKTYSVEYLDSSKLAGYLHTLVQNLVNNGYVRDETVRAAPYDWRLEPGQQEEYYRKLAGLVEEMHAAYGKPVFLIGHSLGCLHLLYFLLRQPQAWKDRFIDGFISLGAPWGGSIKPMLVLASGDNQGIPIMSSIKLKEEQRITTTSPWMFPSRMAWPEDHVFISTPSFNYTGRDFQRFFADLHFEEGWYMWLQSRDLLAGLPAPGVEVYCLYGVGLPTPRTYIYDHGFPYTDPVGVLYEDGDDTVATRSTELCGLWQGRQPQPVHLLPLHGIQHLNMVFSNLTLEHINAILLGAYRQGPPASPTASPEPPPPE
Description: The activity of the LCAT enzyme with the various peptide-lipid complexes as substrates was determined by measuring the mount of cholesteryl esters generated during the enzymatic reaction by HPLC (Vercaemst et al., 1989).
The assay mixture consisted of variable mounts of complexes at cholesterol concentrations varying between 5 and 100 μM, 5 mg defatted bovine serum albumin (Sigma), 6 mM beta-mercaptoethanol in a reaction volume of 0.2 ml. After a preincubation of 20 min at 37° C., the enzymatic reaction was initiated by adding 3-6 μl of the semi-purified LCAT enzyme. The reaction was followed at 37° C. and was stopped by extraction of the incubation mixture with hexane-isopropanol 3:2, v/v. The solvent mixture contained either cholesteryl heptadecanoate (Sigma) or beta-sitosterol (Sigma) as internal standards for respectively cholesteryl esters and unesterified cholesterol quantification.
The unesterified cholesterol and the cholesteryl esters are identified and quantified by isocratic HPLC on a reversed-phase Zorbax ODS column, eluted with acetonitrile-isopropanol at a ratio of 90:10 v/v for unesterified cholesterol and of 50:50 v/v for cholesteryl esters. Detection was performed by measuring the UV absorbance at 205-210 nm. At a column temperature of 50° C. and with a flow-rate of 1.2 ml/min, the separation is completed within 25 min (Vercaemst et al., 1989). The sensitivity of this HPLC technique is similar to that of the conventional radioactive assay for polyunsaturated lecithin substrates (50 ng), and is about twice as low for saturated lecithins (80 ng).
The time course of cholesterol esterification by the LCAT enzyme with discoidal substrates consisting of PLPC, cholesterol, and the synthetic peptides, was followed between 0 and 24 h (Jonas, 1987). For the determination of the kinetic parameters, the initial velocities were determined in the linear portion of the curves, i.e. between 0-30% cholesteryl esters formation. The sample concentrations were in the range of 5×10^-7 to 5×10^-6 M with a constant enzyme volume of 5 μl, so that a linear production of cholesteryl esters formation was measured within 10 min at 37° C.
The initial kinetics (Vo) as a function of the apoprotein or peptide (C) concentrations were analyzed using a Lineweaver-Burk plot of 1/Vo versus 1/C. Linear regression analysis yielded the apparent kinetic parameters: Vmax, Km and Vmax/Km for each apoprotein or peptide-lipid complex. All kinetic experiments were performed at least three times and Vmax and Km values were expressed as mean ±error on the intercept and slope of the regression line.
The kinetics of the reaction of the semi-purified LCAT enzyme with discoidal complexes generated between the peptides, PLPC and cholesterol as substrate were followed between 0 and 24 h, and compared with those of the apo AI/PLPC/cholesterol complexes. The expression "semi-purified" corresponds to the concentration relative to that in plasma by a factor of 5100, with the major contaminant being albumin. The time course of the reaction, expressed as the percentage of esterified cholesterol as compared with the original substrate is shown on FIGS. 5a, 5b and 6 and in Table 2. […] After 24 h, more than 90% of the initial cholesterol present in all substrates was converted into cholesteryl esters (FIG. 5a).

J774 murine macrophages = experiment: Cellular cholesterol efflux from lipid-loaded macrophages; type: cell-based; conditions: for Vmax (cholesterol efflux): phospholipid-peptide complexes, cholesterol-loaded J774 cells, 24 h; for efflux of free cholesterol into the medium: protein concentration of the complex in the medium 100 μg/ml, 24 h incubation
Description: J774 murine macrophages are grown in DMEM (Gibco) with addition of 10% fetal calf serum (FCS), in a 5% CO2 atmosphere. Cells are seeded in 35 mm dishes at a density of 2×10^6 /dish, grown for 18 h in 2ml DMEM-10% FCS and used as confluent monolayers. After 18 h, the cells are washed twice with DMEM and incubated with acetylated LDL at a concentration of 100 μg apo B/ml for 24 h in a medium consisting of DMEM and 10% lipoprotein deficient serum (LPDS). LPDS is prepared from fetal cell serum (Gibco) by eliminating all lipoproteins by ultracentrifugation. After loading with cholesteryl esters, cell monolayers are washed with DMEM.
The cholesteryl ester-laden cells are incubated in 2 ml DMEM supplemented with 1 g/l bovine serum albumin and containing the Sandoz 58-035 compound at a concentration of 1 μg/ml medium as inhibitor of the acyl-CoA:cholesterol acyl transferase enzyme (ACAT) in order to prevent the re-esterification of the cellular cholesterol (Brown et at., 1980). The cholesterol acceptors, i.e. the discoidal peptide-lecithin complexes were added to the medium at concentrations varying between 10 and 200 μg peptide/ml and cells were incubated for 24 h.
After incubation, cells are washed once with phosphate buffer pH 7.4, 0.15N NaGl (PBS) containing 2 g/l BSA and twice with PBS alone. Lipid extracts are prepared by addition to the cell pellet of 5 ml hexane/isopropylalcohol (3:2) (Phillips et at., 1987). Fifty μl of a cholesteryl heptadecanoate solution in chloroform at a concentration of 500 μg/ml are added as internal standard for the HPLC quantitation of cholesteryl esters. After vortex-mixing for 3 min and centrifugation at 3000 rpm for 15 rain, the organic phase supernatant is dried, the precipitate is dissolved in 1 ml chloroform and washed three times. The dry residue is finally dissolved in 50 μl of a mixture of chloroform:acetonitrile:isopropylalcohol (1:1:1), of which 20 μl are injected into the HPLC system.
The same extraction procedure is applied to 1 ml of the medium. For quantification of the unesterified cholesterol fraction, beta-sitosterol is used as internal standard according to methods known in the art.
After delipidation, cellular proteins were dissolved in 0.1M NaOH and the proteins were assayed either by the method of Lowry (Lowry et al., 1951) or with the bicinchoninic acid (BCA) reagent using a kit for protein assay manufactured by Pierce (Pierce Europe, oud-Beijerland, Holland). In both cases bovine serum albumin was used as a standard.

| Substance | Vmax (LCAT activation) [1] [nmol CE/h] | kinetics of cholesterol esterification by LCAT (time course) [1] | Vmax/Km A % of apo A1 (LCAT activation) [1] [%] | time at which plateau of esterification was reached ([1]; saturable kinetics) [h] | Vmax (cholesterol efflux) (J774 murine macrophages) | efflux of free cholesterol into the medium (J774 murine macrophages) [µg] | Vmax compared with other complexes / apo AI-phospholipid complexes [1] |
| --- | --- | --- | --- | --- | --- | --- | --- |
| apo AI: native plasma apo AI purified from human plasma; major apoprotein constituent of HDL | 5.89 | fastest kinetics | 100.0 | 2 to 4 | 52 μg cholesterol released from t | ~8 |  |
| EWLKAEYEKVEEKLKELF [M3] | 0.33 | low rate of cholesterol esterification | 10.7 |  | 77 μg cholesterol released from t |  | considerably lower |
| EWLEAFYKKVLEKLKELF [M4] | 1.53 | fastest kinetics |  |  | 50 μg cholesterol released from t | 20 | two to three times lower |
| EWLKAEYEKVLEKLKELF [M2] | 0.33 | low rate of cholesterol esterification | 3.3 |  | 48 μg cholesterol released from t |  |  |
| EWLKAFYKKVLEKLKELF [M1] | 2.41 | fastest kinetics | 15.4 |  | 111 μg cholesterol released from t |  | two to three times lower; also recorded: considerably lower |
